Data on 17 molecules can be found in US20140294826A1 (TUFTS UNIVERSITY, published 2014).

Like-named read-outs stand apart in the source and are kept apart here.

The target of experiment [1] is T1, Botulinum neurotoxin serotype B (BoNT/B) holotoxin (Clostridium botulinum, UniProt P10844 2-1291).
T1 sequence: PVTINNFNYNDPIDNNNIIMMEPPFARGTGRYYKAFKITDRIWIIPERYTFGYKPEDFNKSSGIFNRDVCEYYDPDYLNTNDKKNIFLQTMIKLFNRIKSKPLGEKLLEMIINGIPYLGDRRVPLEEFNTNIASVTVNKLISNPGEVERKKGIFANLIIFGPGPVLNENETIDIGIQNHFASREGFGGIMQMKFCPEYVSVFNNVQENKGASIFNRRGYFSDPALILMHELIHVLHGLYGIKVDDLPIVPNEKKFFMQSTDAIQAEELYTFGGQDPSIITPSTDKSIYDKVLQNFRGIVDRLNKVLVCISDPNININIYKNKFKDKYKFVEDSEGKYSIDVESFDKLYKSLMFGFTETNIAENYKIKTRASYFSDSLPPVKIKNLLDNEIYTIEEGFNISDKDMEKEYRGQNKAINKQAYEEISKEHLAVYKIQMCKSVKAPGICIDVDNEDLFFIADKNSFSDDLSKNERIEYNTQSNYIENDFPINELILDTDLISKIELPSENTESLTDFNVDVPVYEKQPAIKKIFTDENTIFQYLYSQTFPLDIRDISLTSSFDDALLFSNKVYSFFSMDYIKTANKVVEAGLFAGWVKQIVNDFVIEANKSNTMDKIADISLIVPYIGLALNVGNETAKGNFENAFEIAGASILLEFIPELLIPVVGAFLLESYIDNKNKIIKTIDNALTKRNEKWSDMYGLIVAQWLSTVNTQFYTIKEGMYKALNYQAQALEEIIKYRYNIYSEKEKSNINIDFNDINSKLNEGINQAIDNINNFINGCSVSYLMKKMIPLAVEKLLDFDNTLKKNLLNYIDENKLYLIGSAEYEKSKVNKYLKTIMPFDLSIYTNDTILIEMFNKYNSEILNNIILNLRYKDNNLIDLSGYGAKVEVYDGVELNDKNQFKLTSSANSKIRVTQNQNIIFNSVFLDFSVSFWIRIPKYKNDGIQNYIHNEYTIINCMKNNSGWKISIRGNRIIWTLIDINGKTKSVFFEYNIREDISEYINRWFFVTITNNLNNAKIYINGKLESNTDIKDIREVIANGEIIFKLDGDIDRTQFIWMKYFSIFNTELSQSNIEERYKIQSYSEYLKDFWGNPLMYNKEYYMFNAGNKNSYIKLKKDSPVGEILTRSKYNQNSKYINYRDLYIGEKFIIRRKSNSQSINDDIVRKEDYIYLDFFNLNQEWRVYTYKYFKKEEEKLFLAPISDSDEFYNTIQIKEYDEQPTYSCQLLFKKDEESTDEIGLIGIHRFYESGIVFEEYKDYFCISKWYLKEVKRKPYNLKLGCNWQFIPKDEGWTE
The experiment in a line: SPR; chip ligand for BoNT/B not described. On the technique in general: Surface plasmon resonance follows binding to a sensor surface in real time, without labels.

Experiment [2] has as its target Shiga toxin 1 (Stx1) (Escherichia coli O157:H7) (UniProt P08026). Description: dilution ELISA, HRP-anti-E-tag. For orientation: ELISA stands for enzyme-linked immunosorbent assay.
The target is the same in experiment [3]. The experiment in a line: cell-based or functional assay.
The target is the same in experiment [4]. The experiment in a line: SPR, Stx1 immobilised.
The target is the same in experiment [5].
Experiment [6] shares this target. This is another data set of the same source.

Chain of Shiga toxin 1 (Stx1) (Escherichia coli O157:H7) (P08026 23-315): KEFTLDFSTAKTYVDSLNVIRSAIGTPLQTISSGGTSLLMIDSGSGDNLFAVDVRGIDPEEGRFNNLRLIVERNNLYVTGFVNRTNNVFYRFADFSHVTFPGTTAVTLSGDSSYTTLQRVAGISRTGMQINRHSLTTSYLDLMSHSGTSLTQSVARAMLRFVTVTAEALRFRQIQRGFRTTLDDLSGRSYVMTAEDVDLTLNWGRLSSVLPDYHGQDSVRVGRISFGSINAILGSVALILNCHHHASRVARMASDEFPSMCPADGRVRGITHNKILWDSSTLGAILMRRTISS

B1: ciB-B5 (VHH)
VHH: QVQLVESGGGLVQPGGSLRLSCAASGQSLDNYIIGWFRQAPGKEREGVSCIDRTGTVTHYADSVKGRFTISTDNVKNTVYLEMNDLKPEDTATYFCAAERRWGVVSVCVISDYYFDSWGQGTQVTVSS
For orientation: Kd means the free concentration of one partner at which half of the binding sites on the other are occupied at equilibrium, for simple one-to-one binding. A lower Kd goes with a tighter complex. As for B1, the Kd in experiment [1] came out at 0.97 nM.

B2: ciB-A11 (VHH)
VHH: QVQLVEGGGGLVQPGGALRLSCAASVFGMDYYYIGWVRQAPGKEREGVSCISNIGRTHYADSVKGRFTISRDNAKNTVYLQMNSLKPEDTAVYYCAAAPLVGNYCPASYEYESWGQGTQVTVSS
B2: the Kd in experiment [1] is 0.84 nM.

B3: Stx2-D2 (VHH)
VHH: QVQLVESGGGLVQPGGSLGLSCAMSGTTQDYSAVGWFRQAPGKEREGVSCISRSGRRTNYADSVRGRFTISRDNAKDTVYLQMNSLKPDDTAVYYCAARKTDMSDPYYVGCNGMDYWGKGTLVTVSS
The term EC50 denotes the midpoint of the concentration-response curve. B3: the EC50 in experiment [2] was above 1000 nM.

B4: Stx2-H6 (VHH)
VHH: QVQLVETGGGLVQPGGSLRLSCAASGFSLDPYVIGWFRQAPGKEREGVSCITSRAASRTSVDSVNERFTISRDNAKNTVDLHINNLKPEDSGVYYCAAVPPAKLPLFSLCRSLPAKYDYWGQGTQVTVSS
Take B4: the EC50 in experiment [2] is above 1000 nM. The molecule also displayed an IC50, Vero cell neutralization assay in experiment [3] above 1000 nM.

B5: Stx-A4 (VHH)
VHH: QVQLVESGGGLVQPGGSLRLSCAASGFTLGSYHIGWFRHPPGKEREGTSCLSSRGDYTKYAEAVKGRFTISRDNTKSTVYLQMNNLKPEDTGIYVCAAIRPVLSDSHCTLAARYNYWGQGTQVTVSS
Molecule B5 displayed an EC50 in experiment [2] of 30 nM. The molecule also registered an IC50, Vero cell neutralization assay in experiment [3] above 330 nM. Also, the Kd in experiment [4] amounted to 7.2 nM.

B6: Stx2-A6 (VHH)
VHH: QVQLVESGGGLVQPGGSLKLSCAASGFTLADYVTVWFRQAPGKSREGVSCISSSRGTPNYADSVKGRATVSRNNANNTVYLQMNGLKPDDTAIYYCAAIRPARLRAYRECLSSQAEYDYWGQGTQVTVSS
The molecule B6 showed an EC50 in experiment [2] above 1000 nM.

B7: A9/D4 heterodimer VNA (designed binder)
chain: QVQLVETGGGLAQAGDSLRLSCVEPGRTLDMYAMGWIRQAPGEEREFVASISGVGGSPRYADSVKGRFTISKDNTKSTIWLQMNSLKPEDTAVYYCAAGGDIYYGGSPQWRGQGTRVTVSSEPKTPKPQGGGGSGGGGSGGGGSQVQLVESGGGLVQAGGSLRLSCAASGRINGDYAMGWFRQAPGEEREFVAVNSWIGGSTYYTDSVKGRFTLSRDNAKNTLSLQMNSLKPEDTAVYYCAAGHYTDFPTYFKEYDYWGQGTQVTVSSEPKTPKPQ
In general, EC50 (read off the curve) refers to the concentration needed to bring the measured effect to its halfway point. Read a low EC50 (read off the curve) as an effect from little substance. As to B7, in experiment [2], the EC50 amounted to 0.6 nM. Moreover, in experiment [3], the IC50, Vero cell neutralization assay worked out at 1 nM. In experiment [4], this molecule had a Kd of 1.2 nM. Further, the EC50 (read off the curve) in experiment [5] stood at 0.6 nM.

B8: A9/A5/G1 heterotrimer VNA (designed binder)
chain: QVQLVETGGGLAQAGDSLRLSCVEPGRTLDMYAMGWIRQAPGEEREFVASISGVGGSPRYADSVKGRFTISKDNTKSTIWLQMNSLKPEDTAVYYCAAGGDIYYGGSPQWRGQGTRVTVSSEPKTPKPQGGGGSGGGGSGGGGSQVQLVESGGGLVQPGGSLRLSCAALEFTLEDYAIAWFRQAPGKEREGVSCISKSGVTKYTDSVKGRFTVARDNAKSTVILQMNNLRPEDTAVYNCAAVRPVFVDSVCTLATRYTYWGEGTQVTVSSAHHSEDPGGGGSGGGGSGGGGSQVQLVESGGGLVQPGESLRLSCVASASTFSTSLMGWVRQAPGKGLESVAEVRTTGGTFYAKSVAGRFTISRDNAKNTLYLQMNSLKAEDTGVYYCTAGAGPIATRYRGQGTQVTVSSAHHSEDP
Regarding B8, the EC50 in experiment [2] stood at 0.5 nM. The molecule also displayed an IC50, Vero cell neutralization assay in experiment [3] of 0.05 nM. Also, the EC50 (read off the curve) in experiment [6] is 0.5 nM. In experiment [4], this molecule returned a dissociation constant (Kd) of 0.46 nM.

B9: Stx2-G9 (VHH)
VHH: QVQLVESGGGLVQPGGSLTLSCTASGFTLNSYKIGWFRQAPGKEREGVSCINSGGNLRSVEGRFTISRDNTKNTVSLHMDSLKPEDTGVYHCAAAPALNVFSPCVLAPRYDYWGQGTQVTVSS
In the case of B9, in experiment [2], the EC50 is above 1000 nM. Moreover, in experiment [3], the IC50, Vero cell neutralization assay was above 1000 nM.

B10: A5/D10 heterodimer VNA (designed binder)
chain: QVQLVESGGGLVQPGGSLRLSCAALEFTLEDYAIAWFRQAPGKEREGVSCISKSGVTKYTDSVKGRFTVARDNAKSTVILQMNNLRPEDTAVYNCAAVRPVFVDSVCTLATRYTYWGEGTQVTVSSAHHSEDPGGGGSGGGGSGGGGSQVQLVETGGLVQAGGSLRLSCAASGVPFSDYTMAWFRQAPGKEREVVARITWRGGGPYYGNSGNGRFAISRDIAKSMVYLHMDSLKPEDTAVYYCAASRLRPALASMASDYDYWGQGTQVSVSSEPKTPKPQ
B10 returned an EC50 in experiment [2] of 30 nM. In addition, the IC50, Vero cell neutralization assay in experiment [3] turned out to be 50 nM. The same molecule registered a dissociation constant Kd in experiment [4] of 9.2 nM.

B11: Stx1-A9 (VHH)
VHH: QVQLVETGGGLAQAGDSLRLSCVEPGRTLDMYAMGWIRQAPGEEREFVASISGVGGSPRYADSVKGRFTISKDNTKSTIWLQMNSLKPEDTAVYYCAAGGDIYYGGSPQWRGQGTRVTVSS
For the molecule B11, in experiment [2], the half-maximal effective concentration (EC50) was determined as 10 nM. Also, in experiment [3], the IC50, Vero cell neutralization assay was found to be 10 nM. In experiment [4], this molecule yielded a Kd of 7.6 nM.

B12: Stx2-G1 (VHH)
VHH: QVQLVESGGGLVQPGESLRLSCVASASTFSTSLMGWVRQAPGKGLESVAEVRTTGGTFYAKSVAGRFTISRDNAKNTLYLQMNSLKAEDTGVYYCTAGAGPIATRYRGQGTQVTVSS
Consider B12, for which the EC50 in experiment [2] was above 1000 nM. The IC50, Vero cell neutralization assay in experiment [3] was above 1000 nM.

B13: Stx1-D4 (VHH)
VHH: QVQLVESGGGLVQAGGSLRLSCAASGRINGDYAMGWFRQAPGEEREFVAVNSWIGGSTYYTDSVKGRFTLSRDNAKNTLSLQMNSLKPEDTAVYYCAAGHYTDFPTYFKEYDYWGQGTQVTVSS
In experiment [2], B13 came in with an EC50 of 0.5 nM. In experiment [3], this molecule displayed an IC50, Vero cell neutralization assay above 1000 nM. This molecule yielded a Kd in experiment [4] of 0.128 nM. The EC50 (read off the curve) in experiment [5] worked out at 0.5 nM.

B14: Stx2-D10 (VHH)
VHH: QVQLVETGGLVQAGGSLRLSCAASGVPFSDYTMAWFRQAPGKEREVVARITWRGGGPYYGNSGNGRFAISRDIAKSMVYLHMDSLKPEDTAVYYCAASRLRPALASMASDYDYWGQGTQVSVSS
In turn, B14 yielded an EC50 in experiment [2] above 1000 nM. The IC50, Vero cell neutralization assay in experiment [3] was above 1000 nM.

B15: Stx-A5 (VHH)
VHH: QVQLVESGGGLVQPGGSLRLSCAALEFTLEDYAIAWFRQAPGKEREGVSCISKSGVTKYTDSVKGRFTVARDNAKSTVILQMNNLRPEDTAVYNCAAVRPVFVDSVCTLATRYTYWGEGTQVTVSS
For B15, the EC50 in experiment [2] came out at 15 nM. In addition, in experiment [3], the IC50, Vero cell neutralization assay stood at 100 nM. Besides, in experiment [4], the Kd came out at 12.5 nM.

B16: G1/D10 heterodimer VNA (designed binder)
chain: QVQLVESGGGLVQPGESLRLSCVASASTFSTSLMGWVRQAPGKGLESVAEVRTTGGTFYAKSVAGRFTISRDNAKNTLYLQMNSLKAEDTGVYYCTAGAGPIATRYRGQGTQVTVSSAHHSEDPGGGGSGGGGSGGGGSQVQLVETGGLVQAGGSLRLSCAASGVPFSDYTMAWFRQAPGKEREVVARITWRGGGPYYGNSGNGRFAISRDIAKSMVYLHMDSLKPEDTAVYYCAASRLRPALASMASDYDYWGQGTQVSVSSEPKTPKPQ
B16: the EC50 in experiment [2] is above 1000 nM. The IC50, Vero cell neutralization assay in experiment [3] is above 100 nM.

B17: ciB-A11/B5 heterodimer (designed binder)
chain: QVQLVEGGGGLVQPGGALRLSCAASVFGMDYYYIGWVRQAPGKEREGVSCISNIGRTHYADSVKGRFTISRDNAKNTVYLQMNSLKPEDTAVYYCAAAPLVGNYCPASYEYESWGQGTQVTVSSAHHSEDPSGGGGSGGGGSGGGGSQVQLVESGGGLVQPGGSLRLSCAASGQSLDNYIIGWFRQAPGKEREGVSCIDRTGTVTHYADSVKGRFTISTDNVKNTVYLEMNDLKPEDTATYFCAAERRWGVVSVCVISDYYFDSWGQGTQVTVSSAHHSEDPS
The molecule B17 showed a Kd in experiment [1] of 5.3 nM.
